# In the DeepSol protein solubility set:
# Assay: soluble on expression in E. coli; label from the status in PepcDB or PDB records
row,Sequence,soluble on expression in E. coli
1,MEENLERTESLAREADDCHPIFRIAPSTVEFNKLRKRLLRHIRQAFDDFSMLSSGKKWLVALSGGKDSYGLLALLLDLKWRGLLPVEILACNLDQGQPGFPKHILPDFLNSYQIPHRIEYQDTYSIVTDKLVHTQTYCSLCSRLRRGNLYRIAREEGCSALVLGHHRDDVLETFFMNLFHGGRLAAMPGKLINDEGDLFVLRPLVYAAEEDMEKFSQAMQFPIIPCNLCGSQDGLQRNAMKEMLKDIERKMPGRKDTMIRALTNVRPSHLLDKKFFDFKNLF,not soluble
2,SAFVAALSAAGLPTDAFVFEGFLPTRGKRRLEKLANLKGEQRVVIFYEAPGRLQAALADMREVLGDRHVVVARELTKIHEEFVRGRVSFVAEHFAAVDVKGEVVILVAPAPAP,soluble
3,MQGDPDVLRLLNEQLTSELTAINQYFLHSKMQDNWGFTELAAHTRAESFDEMRHAEEITDRILLLDGLPNYQRIGSLRIGQTLREQFEADLAIEYDVLNRLKPGIVMCREKQDTTSAVLLEKIVADEEEHIDYLETQLELMDKLGEELYSAQCVSRPPT,not soluble
4,MLAQLTISNFAIVRELEIDFHSGMTVITGETGAGKSIAIDALGLCLGGRAEADMVRTGAARADLCARFSLKDTPAALRWLEENQLEDGHECLLRRVISSDGRSRGFINGTAVPLSQLRELGQLLIQIHGQHAHQLLTKPEHQKFLLDGYANETSLLQEMTARYQLWHQSCRDLAHHQQLSQERAARAELLQYQLKELNEFNPQPGEFEQIDEEYKRLANSGQLLTTSQNALALMADGEDANLQSQLYTAKQLVSELIGMDSKLSGVLDMLEEATIQIVEASDELRHYCDRLDLDPNRLFELEQRISKQISLARKHHVSPETLPQYYQSLLEEQQQLDDQADSQETLALAVTKHHQQALETARALHQQRQHYAEELAQLITDSMHALSMPHGQFTIDVKFDEHHLGADGADRIEFRVTTNPGQPMQPIAKVASGGELSRIALAIQVITARKMETPALIFDEVDVGISGPTAAVVGKLLRQLGESTQVMCVTHLPQVAGCGHQHYFVSKETDGAMTETHMQSLNKKTRLQELARLLGGSEVTRNTLANAKELLAA,not soluble
5,MGSDKIHHHHHHMPEILINKPVEDELVESYLLYSMSVIVGRAIPDVRDGLKPVQRRILYGMYELGLKHNSPTKKSARIVGEVMGKYHPHGDAPVYDALVRMAQPFTMRYPLIEGQGNFGSIDRDPPAAMRYTEARLTRLAEEMLEDIEKNTVNMIDNFDGTLKEPEVLPSKVPNLIINGASGIAVGMATNIPPHNLSETVDALIYLIDHPEATVEELMQFIKGPDFPTGAVVVNASELKKVYEEGRGRIIVRGKVHVEDGKRVKRIVITEIPYGVSKAGLIEQIAKIAKDDESLPIRNIRDESDKRGMRIVIEIPKDANEEVIINNLYKRTALQDYFNVQMLVIDKHKRPRLMNLKGLMEAFLEHRFEVIRRRARYEYEQYTRRAHVVEGLLKAARAIGVVVDIVRNSKDVESARQSLMETLEITEEQAKAILDMRLSRLTSLEIENLQNEYSDLVRKISEVKEILEKDEKVKEIMKKEFLYLKQQYGDPRRTEVTDQSIEYNEEELIVEEDVVITLSHKGYLKSTPLNSYRSQKRGGKGITVSKLSEDDEVEFVVVAKNTSSTLFITNLGRAYVLKNYQLETTGRNTRGRHITAFLNLEDTEKIVALASLNGEGRDLVIATKSGKIKRTALKEFENATSNRGVRAIKIEPGDEIVSARVVNSEKETLIVATKMGMAIRFPVSDVRRMGRNAAGVQAIKLQPGDEVVSVDVIPPGEEGEILTVTEKGFGKRTPVQLYRIQRRGGTGLRNISDVNKTGYVVAVRYVRGDEEIVVVTRNGMMIRFPVSEIGVIGRVTKGVKLIELGDDTISKVAVVKD,not soluble
6,MKKTHINVIGAGLAGSEAAYQIAKRGIPVKLYEMRGVKQTPQHKTDKFAELVCSNSLRGAAITNAVGLLKEEMRRLDSVIIKAAEVTQVPAGGALAVDREGFSDFVTREVSNHPLVEVIREEITDLPEDEITIIATGPLTSDKLAEKIHEFNGADGFYFYDAAAPIIDANSINFDKVYKKSRYDKGEADYINCPMTKEEFQAFQEALISAEEAPLNSFEDLKVFEGCMPIEEMAKRGYKTMLFGPMKPVGLEYPEDYKGPRDGDFKTPYAVVQLRQDNASASLYNIVGFQTHLKWGEQKRVFQMIPGLENAEFVRYGVMHRNSYMDSPNLLKQTFQSRKQENLFFAGQMTGVEGYVESAASGLVAGINAVKLFNDEEVVIFPKTTAIGSLPYYITHTDSKHFQPMNVTFGIVEELEGPRIRDKKERYTKVAERALNSLTDIISKDNLLEHHHHHH,soluble
7,MGSDKIHHHHHHMERMSIKYFVNNNSLGPDRNISSVGFEEIPPNTSYPTLNHSAGYYFNPDKGRILTEYQLIYITEGEGVLETRSGGVFTIKRGMIFVLFPGEWHTYYPNYQTGWSHYWIGFCGPEVDSWMTNEYCSKESPVFKVGINDEIVSLFRKAIDVANEEPTLYQRVLSGLVTYLVALMCSIDKNLQVENDDFSSKIDYACVLMKELIDQPVSMQEIAKKAGMGYSLFRKLFKEQKNYAPVQYFQNLKIQKAIELLTTTTIPVKEIAYRLDFESPAYFSARFKKQTGKSPIEYREEFRIK,not soluble
8,MGSDKIHHHHHHMNLLSPSDPIVLSTAYLPPIQYFTKLLHPEGVLLETAENFVKQSYRNRCHIAGPEGMQPLTIPVEKSPSPKAPIRDIRISEHGNWRHLHLNALISSYGSAPFFDHYMTEIEPFYRHKYTFLWDFNLDLLSVCLEWLDISPLIMFTFEYVEDCPNDFRYSIRPKQAPEDESFRPRVYYRTFAHKYGFLPNLSIVDLIFHEGPSAIQTLKECIR,not soluble
9,MGSDKIHHHHHHMRALVLAAGKGTRMKSKIPKVLHPLSGRPMIEWVIETAGKVAQKVGVVLGFEAELVRKALPEWVDVFVQGEQLGTAHAVMCAKDFIEPGDDVLILYGDVPLISENTLKRMIEEHRKGADVTILVADLEDPSGYGRVIQDGDKYRIIEDTDLPEELKSVTTINTGFYVFSGDFLLRALPEIKNENAKGEYYLTDAVNFAEKVRVVRTDDLLEITGVNTRKTLVWLEEQLRMRKIEELLENGVTILDPATTYIHYSVEIGMDTVIYPMTFIEGKSRVGENCEIGPMTRIVDCEIGNNVKITRSECFKSVIEDDVSVGPFARLREGTILKKSSKIGNFVEIKKSTIGEGTKAQHLSYIGDAFVGKNVNVGAGTITCNYDGKKKNPTFIEDGAFIGSNSSLVAPVRIGKGALIGAGSVITEDVPPYSLGLGRARQVVKEGWVLKKRKEE,not soluble
10,MYVDPKVTIETVKTLNTYLKTRAELRSTDHVVIAEKLDDNDKKATTRLKILTKFDEGRFGAIYMVQNESAVDNDVVSVGNSRFIMKTALRQLSSHQIVYRLSREITVLKTLWGQGNDPPPRVPPILHQGKILGVPFYVTSIFDVNLEKCREQMGGGTFCVQSAFHIAQEIFMALKFMHRRQLVHRDVKPTNIALSYQNRDQWYLIDYGDAISVGKKTPISPPDGVTLPFLSLEAHDLLVTSSYSSFQQDLESWFYVIVDLLKPLPWKDNNRIDKVALAKRDFMSRLPNNLTNLPSQILDIGQILKTESPYSEISKKLVEGLASVKTSSSEKWNPEWYDRSATRNLREKKIKNQPRSRESAEAEATAVQTTPTGSTELQNDRRDKSVYVSTIVTKVVDNRKKVSSSNSPTTVSTNKTAVIEDEEDVKKNSPIQKQQDRSVYFNDFPVAAVAQPETGKKKKYRYKMRKQ,not soluble
11,MKITGVKAVFYSATGNTEEVVTAIAEKIAEKLGVSMEICNFTLPGGRTEVQTYAPSELVVFGTPVYAGRVPNKMLPVVQNNFKGEGALAVPVVTFGNRNFDNGLIELRNELENNGFHTIAGAGFAVSHVFSDKIAPGRPDEADREIMMRFAEAVAEKVEKMEEIPAPIEVRGEDPVGPYYTPLGTDGKPAVFLKAKPK,not soluble
12,MAHHHHHHMADWQGWYQRMLDVHNRNVSLRCRICDLQRLDGNGVQFVDMQTERRLRILAQHRVGMGVLKLDADKYEDQADNVTFGTTKLSELLADARKAQLGEEYWPSVELKVRKPSGQSKAHYSLIDNERIEKRSRELYEKYRDAKKRSLFVTPMETWLEVKGMQVRKSVDNADEDGYTLDALQDMMDGDDEDKV,not soluble
